The chains are these.
B1: progesterone receptor isoform A (PR-A), full-length, Strep II tagged (receptor, human, UniProt P06401-2 1-769, looked up)
chain: MSRSGCKVGDSSGTAAAHKVLPRGLSPARQLLLPASESPHWSGAPVKPSPQAAAVEVEEEDGSESEESAGPLLKGKPRALGGAAAGGGAAAVPPGAAAGGVALVPKEDSRFSAPRVALVEQDAPMAPGRSPLATTVMDFIHVPILPLNHALLAARTRQLLEDESYDGGAGAASAFAPPRSSPCASSTPVAVGDFPDCAYPPDAEPKDDAYPLYSDFQPPALKIKEEEEGAEASARSPRSYLVAGANPAAFPDFPLGPPPPLPPRATPSRPGEAAVTAAPASASVSSASSSGSTLECILYKAEGAPPQQGPFAPPPCKAPGASGCLLPRDGLPSTSASAAAAGAAPALYPALGLNGLPQLGYQAAVLKEGLPQVYPPYLNYLRPDSEASQSPQYSFESLPQKICLICGDEASGCHYGVLTCGSCKVFFKRAMEGQHNYLCAGRNDCIVDKIRRKNCPACRLRKCCQAGMVLGGRKFKKFNKVRVVRALDAVALPQPVGVPNESQALSQRFTFSPGQDIQLIPPLINLLMSIEPDVIYAGHDNTKPDTSSSLLTSLNQLGERQLLSVVKWSKSLPGFRNLHIDDQITLIQYSWMSLMVFGLGWRSYKHVSGQMLYFAPDLILNEQRMKESSFYSLCLTMWQIPQEFVKLQVSQEEFLCMKVLLLLNTIPLEGLRSQTQFEEMRSSYIRELIKAIGLRQKGVVSSSQRFYQLTKLLDNLHDLVKQLHLYCLNTFIQSRALSVEFPEMMSEVIAAQLPKILAGMVKPLLFHKK
notes: Progesterone receptor isoform PR-A, human; N-terminal truncation (missing aa 1-164) of full-length PR-B; no cleavage step is described and the DSF methods call the purified proteins SII-tagged; Carries the steroid R5020 (agonist) or RU486 (antagonist) according to the assay; Monomer without DNA, dimer on PRE DNA by SEC-MALS; The reporter-assay plasmids carry hPGR NM_000926.4 and NM_001202474.3; …
B2: steroid receptor coactivator 3 (SRC3), full-length, Strep II tagged (natural protein)
chain: not shown
notes: full-length open reading frame, codon-optimised for insect cells; NR-boxes at 685-689, 738-742 and 1057-1061; no cleavage step is described; source: Sf9 insect cells (baculovirus), purified (StrepTrap XT, SEC); not shown: Strep II, N-terminal, kept

The target of data set [1] is T1, histone acetyltransferase p300, full-length, Strep II tagged (human, UniProt Q09472 1-2414).
T1 construct: Histone acetyltransferase p300, human; full-length open reading frame, codon-optimised for insect cells; no cleavage step is described; source: Sf9 insect cells (baculovirus), purified (StrepTrap XT, SEC); not shown: Strep II, N-terminal, kept
T1 sequence (Q09472 whole entry): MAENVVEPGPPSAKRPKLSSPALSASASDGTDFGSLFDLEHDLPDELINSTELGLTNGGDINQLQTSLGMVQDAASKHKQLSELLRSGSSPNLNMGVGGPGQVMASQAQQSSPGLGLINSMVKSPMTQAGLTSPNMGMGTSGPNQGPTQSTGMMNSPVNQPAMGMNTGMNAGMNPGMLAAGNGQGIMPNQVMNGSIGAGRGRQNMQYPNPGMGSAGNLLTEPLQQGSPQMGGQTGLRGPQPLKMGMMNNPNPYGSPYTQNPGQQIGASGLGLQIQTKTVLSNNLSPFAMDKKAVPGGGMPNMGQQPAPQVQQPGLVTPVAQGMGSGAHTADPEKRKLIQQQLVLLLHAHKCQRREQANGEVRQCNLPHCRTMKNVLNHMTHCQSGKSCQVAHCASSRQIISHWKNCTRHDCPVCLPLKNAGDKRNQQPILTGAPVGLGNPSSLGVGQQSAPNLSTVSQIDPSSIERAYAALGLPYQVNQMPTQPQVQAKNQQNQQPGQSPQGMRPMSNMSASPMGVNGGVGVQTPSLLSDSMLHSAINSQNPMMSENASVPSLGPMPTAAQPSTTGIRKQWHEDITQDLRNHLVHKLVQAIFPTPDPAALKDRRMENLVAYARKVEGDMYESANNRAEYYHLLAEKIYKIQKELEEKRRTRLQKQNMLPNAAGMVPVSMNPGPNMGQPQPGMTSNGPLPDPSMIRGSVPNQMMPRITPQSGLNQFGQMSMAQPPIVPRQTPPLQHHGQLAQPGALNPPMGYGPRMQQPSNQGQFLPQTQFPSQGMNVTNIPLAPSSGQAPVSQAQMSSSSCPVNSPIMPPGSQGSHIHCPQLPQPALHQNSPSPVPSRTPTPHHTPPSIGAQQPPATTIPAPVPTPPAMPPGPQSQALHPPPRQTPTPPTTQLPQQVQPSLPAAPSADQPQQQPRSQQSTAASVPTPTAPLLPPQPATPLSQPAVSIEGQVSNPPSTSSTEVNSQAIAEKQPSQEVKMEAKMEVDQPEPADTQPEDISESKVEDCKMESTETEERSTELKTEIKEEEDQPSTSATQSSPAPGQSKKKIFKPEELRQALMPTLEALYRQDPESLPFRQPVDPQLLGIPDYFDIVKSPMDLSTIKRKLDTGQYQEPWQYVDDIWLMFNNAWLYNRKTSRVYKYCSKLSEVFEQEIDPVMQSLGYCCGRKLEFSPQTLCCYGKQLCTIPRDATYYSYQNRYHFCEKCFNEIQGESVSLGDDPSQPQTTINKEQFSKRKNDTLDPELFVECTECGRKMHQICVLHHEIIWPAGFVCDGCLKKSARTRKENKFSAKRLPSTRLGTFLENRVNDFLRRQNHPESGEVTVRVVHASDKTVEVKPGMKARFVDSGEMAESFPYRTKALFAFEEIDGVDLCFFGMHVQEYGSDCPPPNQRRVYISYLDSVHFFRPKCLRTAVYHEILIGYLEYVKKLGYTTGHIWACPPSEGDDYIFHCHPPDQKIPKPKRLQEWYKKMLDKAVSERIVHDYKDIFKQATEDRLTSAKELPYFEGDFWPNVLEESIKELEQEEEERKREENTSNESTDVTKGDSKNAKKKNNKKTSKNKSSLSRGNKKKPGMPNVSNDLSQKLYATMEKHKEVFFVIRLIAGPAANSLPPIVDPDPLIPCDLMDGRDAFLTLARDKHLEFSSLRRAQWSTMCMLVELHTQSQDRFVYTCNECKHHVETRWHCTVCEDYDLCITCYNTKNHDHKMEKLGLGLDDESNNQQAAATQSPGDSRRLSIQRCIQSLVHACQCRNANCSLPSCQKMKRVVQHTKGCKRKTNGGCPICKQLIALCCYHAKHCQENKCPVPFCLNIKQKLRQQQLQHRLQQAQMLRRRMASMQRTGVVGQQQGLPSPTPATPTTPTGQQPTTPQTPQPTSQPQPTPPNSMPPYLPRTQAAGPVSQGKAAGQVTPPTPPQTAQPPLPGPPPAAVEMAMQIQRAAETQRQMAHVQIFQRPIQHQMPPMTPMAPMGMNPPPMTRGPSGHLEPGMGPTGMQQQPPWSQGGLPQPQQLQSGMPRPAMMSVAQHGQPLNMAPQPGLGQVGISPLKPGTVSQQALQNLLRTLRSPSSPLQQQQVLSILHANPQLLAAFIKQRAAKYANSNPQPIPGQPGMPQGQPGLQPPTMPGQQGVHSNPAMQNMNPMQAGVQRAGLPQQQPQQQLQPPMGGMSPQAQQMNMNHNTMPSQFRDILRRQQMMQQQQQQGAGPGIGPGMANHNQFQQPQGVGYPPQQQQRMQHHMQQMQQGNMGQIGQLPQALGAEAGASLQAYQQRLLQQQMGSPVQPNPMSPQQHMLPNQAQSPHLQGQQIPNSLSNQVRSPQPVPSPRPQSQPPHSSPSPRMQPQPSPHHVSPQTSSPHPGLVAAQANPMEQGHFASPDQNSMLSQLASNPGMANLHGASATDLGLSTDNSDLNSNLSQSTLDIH
Nature of the data set: cross-linking; DSSO XL-MS of R5020-bound PR:SRC3:p300, with and without PRE DNA (PR:SRC3:p300:DNA 2:1:1:1.5); PR 5 uM, 3 mM DSSO, 25 C 45 min; 20 mM Hepes pH 7.5, 200 mM NaCl, 1 M urea, 1 mM TCEP, 5% glycerol. Conditions: both partners purified.

Data set [2] deals with the molecule itself. Nature of the data set: SEC-MALS; R5020-bound PR mixed with 32-mer PRE DNA; Superose 6 Increase; 20 mM Hepes, 50 mM NaCl, 5% glycerol, 1 mM TCEP, with or without 1 M urea, pH 7.5. Background: In gel filtration, larger molecules generally elute earlier.
Data set [3] concerns the target B2. Nature of the data set: HDX-MS; differential, R5020-bound PR vs PR:SRC3 and SRC3 vs PR:SRC3, with and without PRE DNA (2:1:1 PR:SRC3:PRE), sequential addition; 4 C, 20 mM Hepes, 200 mM NaCl, 1 M urea, 1 mM TCEP, 5% glycerol, pD 7.9. Conditions: both partners purified.
The target of data set [4] is T1, histone acetyltransferase p300, …. Kind of data set: HDX-MS; differential, R5020-bound PR:SRC3 vs PR:SRC3:p300, with and without PRE DNA, sequential addition (DNA, PR, SRC3, p300); 4 C, 20 mM Hepes, 200 mM NaCl, 1 M urea, 1 mM TCEP, 5% glycerol, pD 7.9. Conditions: both partners purified.
The target in data set [5] is B1. Nature of the data set: SEC-MALS; R5020-bound PR-A, SRC3 and p300 mixed with PRE DNA; Superose 6 Increase; 20 mM Hepes, 50 mM NaCl, 5% glycerol, 1 mM TCEP, with or without 1 M urea, pH 7.5. Conditions: both partners purified.
Data set [6] concerns the molecule itself. Nature of the data set: SEC-MALS; each protein alone, PR bound to agonist R5020, no DNA; Superose 6 Increase; 20 mM Hepes, 50 mM NaCl, 5% glycerol, 1 mM TCEP, with or without 1 M urea, pH 7.5; about 20-100 ug injected.
The target in data set [7] is T1, histone acetyltransferase p300, …. Nature of the data set: cross-linking; DSSO XL-MS of two proteins (R5020-bound PR with SRC3, or PR-B with p300 without SRC3), with and without PRE DNA; PR 5 uM, 3 mM DSSO, 25 C 45 min; 20 mM Hepes pH 7.5, 200 mM NaCl, 1 M urea, 1 mM TCEP, 5% glycerol. Conditions: both partners purified.

The term stoichiometry N denotes a count of units in the complex or per binding partner. B1: the binding result in data set [1] and in data set [3] was “binds” throughout. Moreover, the “stoichiometry N” value in data set [2] came to 2.

As to B2, the binding result in data set [4] was “binds”. Further, the “stoichiometry N” value in data set [5] worked out at 0.5.

B3: progesterone receptor isoform B (PR-B), full-length, Strep II tagged (receptor, human, UniProt P06401 1-933, looked up)
chain: MTELKAKGPRAPHVAGGPPSPEVGSPLLCRPAAGPFPGSQTSDTLPEVSAIPISLDGLLFPRPCQGQDPSDEKTQDQQSLSDVEGAYSRAEATRGAGGSSSSPPEKDSGLLDSVLDTLLAPSGPGQSQPSPPACEVTSSWCLFGPELPEDPPAAPATQRVLSPLMSRSGCKVGDSSGTAAAHKVLPRGLSPARQLLLPASESPHWSGAPVKPSPQAAAVEVEEEDGSESEESAGPLLKGKPRALGGAAAGGGAAAVPPGAAAGGVALVPKEDSRFSAPRVALVEQDAPMAPGRSPLATTVMDFIHVPILPLNHALLAARTRQLLEDESYDGGAGAASAFAPPRSSPCASSTPVAVGDFPDCAYPPDAEPKDDAYPLYSDFQPPALKIKEEEEGAEASARSPRSYLVAGANPAAFPDFPLGPPPPLPPRATPSRPGEAAVTAAPASASVSSASSSGSTLECILYKAEGAPPQQGPFAPPPCKAPGASGCLLPRDGLPSTSASAAAAGAAPALYPALGLNGLPQLGYQAAVLKEGLPQVYPPYLNYLRPDSEASQSPQYSFESLPQKICLICGDEASGCHYGVLTCGSCKVFFKRAMEGQHNYLCAGRNDCIVDKIRRKNCPACRLRKCCQAGMVLGGRKFKKFNKVRVVRALDAVALPQPVGVPNESQALSQRFTFSPGQDIQLIPPLINLLMSIEPDVIYAGHDNTKPDTSSSLLTSLNQLGERQLLSVVKWSKSLPGFRNLHIDDQITLIQYSWMSLMVFGLGWRSYKHVSGQMLYFAPDLILNEQRMKESSFYSLCLTMWQIPQEFVKLQVSQEEFLCMKVLLLLNTIPLEGLRSQTQFEEMRSSYIRELIKAIGLRQKGVVSSSQRFYQLTKLLDNLHDLVKQLHLYCLNTFIQSRALSVEFPEMMSEVIAAQLPKILAGMVKPLLFHKK
notes: Progesterone receptor isoform PR-B, human; full-length open reading frame (residues up to 933 are named), codon-optimised for insect cells; no cleavage step is described and the DSF methods call the purified proteins SII-tagged; Carries R5020 or RU486 according to the assay; In the functional row PR-B was expressed from a VectorBuilder plasmid in 293T cells (hRluc:P2A:hPGR), not this Sf9 protein; …
In the case of B3, the “stoichiometry N” value in data set [6] worked out at 2. Further, the binding result in data set [7] and in data set [3] was “binds” in each case.

The values are drawn from article PMC11601812, “Structural proteomics defines a sequential priming mechanism for the progesterone receptor” (Research Square, 2024).
